Source: the DeepSol protein solubility set

Assay: soluble on expression in E. coli; label from the status in PepcDB or PDB records
For “MIGVTSCISGDGKSFCSHNLARIYAISGKKTLLIRGDMRKAFNAPANLIPQGSMGLSQHLIGMATIDQIIHKGEIENLYQIIPGPVPPNASELVASQKMEEFIRIMKDKFEVVIMDSPPVGLVSDYMSVIKHIDANLYIVRYDYTPKETLEAIKDLKNKYPAQSHSIIFN”, the “soluble on expression in E. coli” value was “not soluble”.
With “MIHRPTAKENAKRFASVIQALHACETACAYCATECGKNGHAEAMGRCVSLCTDCARFCALARDFLERNSEFAELLLEDCAEICQQTMEECVHHAEGHCRKCAEACEQCKKACLEVAGAAPLSSAQQKELLAALLEHHHHHH” the “soluble on expression in E. coli” value was “not soluble”.
In the case of “MIIEHNGNIHKIARMTGNKNNFLEIILSDIHENIKIKPLTIKVKGENVINILPEEVSFYVKQGVDLIYEKYKRKFFISEISFCQSDSRPSSIYAFLTFHLLEDIIKNESPSNYT”, the “soluble on expression in E. coli” value was “not soluble”.
In the case of “MIIMEKGVVSDSYEVAIARNPHLAEYLSKYRNETGRSPSFLVNIDSSLKSLAHVDVIYPVGDPIFIHIYERGKERRYKPIEPLLKDDEFEFMDAILDIIMSRASDYPPAENEEEQEKNIEDVYKKTVSVGSNKIKRNSVTLEKPLYDKMLYNVKKEIIGLGPLEPLIRDSHIEDISGIGPEDVYIVHKIFGSMPTDITFGSMERLMRFSKRLSERVGRPVSDKRPIVDATLPDGSRLSIVYSTDISQRGPSFTIRKFSEIPLSILNLIKYNTMSYEEAAYLWLALEYGQSVFVCGETASGKTTVVNAIIPFIRPESKIFSAEDTPEIRAPQKAWQQLVTRESGAEESRVTLYDLLRTALRSRPNYIIVGEIRGAEGAMAFQAMQTGHPVISTFHASSVKKMIQRFTGNPINIPVTFMDNLNIVLIQQAVYVGGKFLRRTTSINEIEGYYEDLGGVATRAVFEWDPSTDRHMFRGMNNSYILEEKIAKTAGLVDTSLIYNELFRRARILKDLADQKILDYYQVYEKIKEFYEGALANGY”, the “soluble on expression in E. coli” value was “not soluble”.
In the case of “MIIMLSEYLEEFKEYLERFKNIDINFSDVLKMSKKFIIWRLKQIFGDSSTIFTNISSEITIFDKIFQMIDYDIDGEVEKRLPKDESRFMIGVRREKEIEIKKEIITNLLDFLLIILLSHTPYFNAFVRKYAEIKKIKVIKKLPNKISVWEFIKIASRSRINDLHLERLDLENGFVDITKIKEIFAKEIIRVELMKLGENIKKRKLPDDSVVKELLNEISDYLKDKVKYEQISGIKALNYKGNIPLEWHPPCIRGILNDILSGGSPSHYARRSFVVYWFCAKFNPNLRPLDKNGNLVNVSATDIASEEEIERFIDELIEMLFKNVEDFDEKKTRYYIMHNIGYKVGHGRLTHCEYCKNWQDDGGKGLSYYCKPDELCKKKFIIHPLDYLCYNINKHLKKERFKKIKKEDKNGDNKLEHHHHHH”, the “soluble on expression in E. coli” value was “soluble”.
For “MIIVSRAIVLHNTAYNDSYSIAHLFSRESGRVSYLIPRSSKRGKSGGSLRLLISPLNELEITAEHKQHRDLHFIKEAKLCSLHGRIQSDPVRNSIALFLAEFLYLILRLPEADTNLYDFVAFSIDKLEEMDGPMANFHLAFLFRLLVPLGLIPDLQFGGSVIPRWFDPADGRFVPNAPAHGRGIPPHQSTYLQLFSRITFDNMKAFRLSRAERRQVLDYLVDYYRFHLPPFPLLKTPDILSTLFD”, the “soluble on expression in E. coli” value was “not soluble”.
For “MIIVYTTFPDWESAEKVVKTLLKERMIACANLREHRAFYWWEGKIEEDKEVGAILKTREDLWEELKERIKELHPYDVPAIIRIDVDDVNEDYLKWLIEETKK”, the “soluble on expression in E. coli” value was “soluble”.
For “MIIYTTPTALILEEQGERVEFDRRNGKVLEKPEESLEILDQDVVLCGNVEFLIGKISFDEQHFLFFVVDSSVVACYRGTSAESSHSIRRIERVIAINVKSDGSVIKSQITPGSGTKLKQGTEKIMKFFAEKVTKAEPRPALLDDVLKLFNDSKDFYFCRSRDVTISSQKYFEKREAHTSEDSFFWNKRMVGNLGEAKISDKFTCPIMQGYVATSQLEITDQINAYLTITIISRRSTRRAGARYLRRGIDEASNVANFVETELILNIFEHELSFVQCRGSIPVFWSQRGFKYRPPLIINRSVEETHGVFTEHFKRLKAHYDTPLVAVSLVDQRGRELPLAQRFLEHCVKADDNDVTFFSFDLHQHCRGLNFQKLQTLISSMEETLKTIGFCWVDKTGEVVQSQKGVVRTNCIDCLDRTNLVQGQISLFVVLQQAQRLGIFGPLCEPPEVLVQTMQTMWADNGDVISTQYAGTAALKGDVTRNGERKLMGVMKDGYNSASRYYLTHTKDAQRQKAINIVTGQTEADENAEEEENEKEEEENISRMVTETIQFLVPTQQTVIAGWGLINAFQSSDEIDTVVILTRSNLYIVTYEIDGEKMTDVQIVALEDINTIQTGTSGNNRQCARLETLEGVFIWRPSTVRLFNNTAIRLKSLEEANEYISSVAEQIQVGRNMLTGAEGSVVPVAKITIPQMSVHRKSMAAMGALFGKIKRVGKPSSLSKSASTISTAQLPETDGNESDASQKSDHLMTKILKMSQFKSDSPQPEPFSSLLPAISECQTKISLL”, the “soluble on expression in E. coli” value was “not soluble”.
In the case of “MIKDYLIETMNQDEVNLAITWAAQEGWNPGIHDATCFYQTDPHGFFAGKLNGKTIAIGSAVIYDDFFAFCGFYIVDKSYRDQGYGLELTKARLAYIGNRNAGIDGVINMLDKYARIGYQLAHNNARYCLNKTIKPISSEPHIVPLNQIDFSQLSSYDRLHFPAPRPQFLKCWINQPQSLALAYLIDGQIKGYGVIRTCHKGFKIGPLFAGTPEIAHQLFSNLVPYAKGQLIFLDIPENNPLAIELVSQYQMKKVFATARMYLKGEPPVKKESIYGITTFELG”, the “soluble on expression in E. coli” value was “not soluble”.
In the case of “MIKEFCAENLTLLPTLDAGQISRVELCDNLAVGGTTPSYGVIKEACQLLHDKKISVATMIRPRGGDFVYNDLELKAMEEDILKAVEAGSDALVLGLLTTENQLDTDAIEQLLPATQGLPLVFHMAFDRIPTDHQHQALDQLIDYGFVRVLTHGSPEATPITDNVEQLKSLVTYANKRIEIMIGGGITAENCQSLSQLTGTAIVHGTKII”, the “soluble on expression in E. coli” value was “not soluble”.
For “MIKFMSIASGSSGNCYYLSNGNQALLIDAGIPLRSISKALKDHQLPIEGNVVGVLVTHDHADHIRTIGCLGEKFHLPVFATERVHNGINSSRYMDHLPLLSRRNILQEETFRLAGFDITAFPIPHDATENVGYHITAPGFSFTLCTDVGHITDTISHYASKADYLVMEANYDCEMLLSGPYPEFLKERVSGPNGHLSNQETGDFLARTFHPGMKHVWLCHLSKDNNHPDLCWKSIEYRLFSEGIRVGKDMELTVLKRTSPSSLYTLLEDLEHHHHHH”, the “soluble on expression in E. coli” value was “soluble”.
In the case of “MIKIPQAGRDLETIAVIGAGTIGSAISISLAKAGYHVISTRRRPDLNAGLKAYGITVTSDNVQAVTSADMVILTLKPADLVSEMKKLSQILEGKIVVSMAAAVPIRVIRHILPRSFIVRSMTNIAAEVNAGYTPFCTLEEDEGKISFVSRVLGVFGETERVDEKYMDALTAL”, the “soluble on expression in E. coli” value was “not soluble”.
In the case of “MIKKVLIANRGEIAVRIIRACKEMDIETVAIYSEADKESLHVQIADEAYCVGPTISKESYLNLTNIISVAKLTGCDAIHPGYGFLAENADFAELCRECNLIFIGPSPEAISKMGTKDVARDTMKEAGVPIVPGSQGIIKNTEEAIELANQIGYPVIIKATAGGGGKGIRVARHEEELVKGIQITQQEASTAFGNPGVYLEKYVEDFRHVEIQIMADTHGNAIHLGERDCTIQRRLQKLLEESPSPALDENVRKQMGEAAVKAAVAVDYTGAGTVEFIYEYKTKSFYFMEMNTRIQVEHPVTEMVTGVDLIKEQILVASGEKLSLQQEEVQFNGWAIECRINAENPAKKFMPSPGKVEMYLPPGGFGIRVDSAVYPGYSIPPFYDSMVAKLIVHGKTREEAIAKMKRALSEFVVEGVHTTIPFHLQLLDHPDFVKGEFNTKFLEEHELVTQ”, the “soluble on expression in E. coli” value was “not soluble”.
In the case of “MIKLAPAGLKDDIEMRKVYAGFIAGQIEAGSPIIALEADLMSSMAMDSVARDYPQHVINCGIMEANVIGTAAGLALTGRKPFVHTFTAFASRRCFDQLFMALDYQRNNVKVIASDAGVTACHNGGTHMSFEDMGIVRGLAHSVVLEVTDAVMFADILRQLMDLDGFYWLRTIRKQARSIYAPGSTFTIGKGNVLREGDDITLIANGIMVAEALEAARQLEQEGVSAAVIDMFTLKPIDRMLVKNYAEKTRRIVTCENHSIHNGLGSAVAEVLVENCPVPMRRVGVKERYGQVGTQDFLQKEYGLTAEAIVEAAKSLL”, the “soluble on expression in E. coli” value was “not soluble”.
In the case of “MIKLFTDSDLDGIGCGLLAKLAFAEVNISFCSYRNLDERVVQFLQSDEANGAMLFITDLAVGKEVEQQLAERAARGGHVQVIDHHVTALHFNDYPWGQVVPVRDDGKKTCATSLFYDYLVREGKLAPNETLDGFVELVRQYDTWEWEENGNLQAKRLNDLLTIFGLDGFWETMSERLASREPFSLTETEELLLDMEEKKIQRYIRQKQKQLVQRWLGDYCIGVVFAERHLSELGNALSKRYPHLDLIALVNMGTKHIGFRTIHDDVNVAEFAQQFGGGGHPKASGCLIDDTTFPLFVVETFPLLPVYGDAEQNQLNKKDEAEGVFWTNHHGQWWLSRKTAQGWSVYADGGETHTFPEEIAGERWLKRQFAAGLAHDAAVLDFLSVRLGRDKDAIQADYKAAVKQYKQQTGIES”, the “soluble on expression in E. coli” value was “not soluble”.
In the case of “MIKPVGSDELKPLFVYDPEEHHKLSHEAESLPSVVISSQAAGNAVMMGAGYFSPLQGFMNVADAMGAAEKMTLSDGSFFPVPVLCLLENTDAIGDAKRIALRDPNVEGNPVLAVMDIEAIEEVSDEQMAVMTDKVYRTTDMDHIGVKTFNSQGRVAVSGPIQVLNFSYFQADFPDTFRTAVEIRNEIKEHGWSKVVAFQTRNPMHRAHEELCRMAMESLDADGVVVHMLLGKLKKGDIPAPVRDAAIRTMAEVYFPPNTVMVTGYGFDMLYAGPREAVLHAYFRQNMGATHFIIGRDHAGVGDYYGAFDAQTIFDDEVPEGAMEIEIFRADHTAYSKKLNKIVMMRDVPDHTKEDFVLLSGTKVREMLGQGIAPPPEFSRPEVAKILMDYYQSINS”, the “soluble on expression in E. coli” value was “soluble”.
With “MIKTAQSVGELTRAIKNELESLFPFVRVKGELSNVKQHSSGHVYLTLKDSEAQIPAVIWKSVRARSPLELRDGLEVIAEGRLEVWPPAGRYQLICTALFETGEGEQRLALERLIAKLAKAGWFDAERKKPIPRIPRRIGMITSPTGAVIRDMSDVFARRFPAAELLLYPVQVQGERAVESIVRALRYFNDPPKPEHKPDVLIVARGGGSSEDLQAFNDEAVAEAIYRSAIPVISAVGHETDLSVADMVADLRAGTPSIAAERAVPDREELLRLIDNLVNRQSILMEGLISGAQLQVDSITSSYAFNRPVQMLGQFEERLALMEKEMKRAIAEKVRDREQQLTAAADRLAMLDINRTLKRGFALVTQDDRYVTSAKSLEADAKIGLTFHDGQREARVTE” the “soluble on expression in E. coli” value was “not soluble”.
For “MILAIDLGTSGAKAAIIDSAGAVHEQTFVPYSTTKLPNGGVEQDPMQWVSAARQAVTRLPRSYSVVSFTGQMQDLICLDRAGRPLGQALLYNDARAAAEAARLNTVVPEWKDITGNRQTATSTAAMWLRLMEQSD”, the “soluble on expression in E. coli” value was “not soluble”.
For “MILHGFHLSTSSHCLPFIFRHLFIFHSITALCDHMLSKFVVVEVSNSNNTMTLVEYLVTHGFDKFAVVTDLVDHPSFKYKDGSSSPESPSTTASTAAQHTPPRTAVSTPTSINTPVPPHQNKQRHSIDKIAANLSTKKVSPSSIEKQLQRTSHNPLHQLSTPHALSQLQKLLEEQHKINQMNIQKKEQERQQAEIQRILLQQANAAQINHSFGLERLTPEYDDNHHSETISKASSEDLKTEPDSTDFGLGTSDDQVRASMLHLLHPVFAPAFGMLDAENIFGAASKPTTPASKRRNTDSNGAPSKKHRWLPVNELEESRSSRGKNCGRVHCKATYKCALCGKPTTLNSTGSRWNLLRHVIMIHSDCKPYKCWDCDFTGIKSNVISHARQCRHNAEDAHDITTDEMRAEWNLRLHECFPDYVRAKERGWQPEEVTVKKEEVEESPTLVKQELTLVKQEPTFAEQLEPMAQPLV”, the “soluble on expression in E. coli” value was “not soluble”.
